Experiment [1] has as its target T1, HMmm1s–Mdm12 complex (K. lactis) (Kluyveromyces lactis, UniProt Q6CJU9+Q6CUC3).
T1 sequence (Q6CJU9 179-434): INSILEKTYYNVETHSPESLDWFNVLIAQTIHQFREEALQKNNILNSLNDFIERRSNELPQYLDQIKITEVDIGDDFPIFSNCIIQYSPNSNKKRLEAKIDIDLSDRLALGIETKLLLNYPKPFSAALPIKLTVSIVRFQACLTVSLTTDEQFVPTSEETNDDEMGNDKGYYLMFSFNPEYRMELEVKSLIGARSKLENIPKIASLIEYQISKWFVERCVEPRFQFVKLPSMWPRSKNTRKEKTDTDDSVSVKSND
T1 sequence (Q6CUC3 1-239): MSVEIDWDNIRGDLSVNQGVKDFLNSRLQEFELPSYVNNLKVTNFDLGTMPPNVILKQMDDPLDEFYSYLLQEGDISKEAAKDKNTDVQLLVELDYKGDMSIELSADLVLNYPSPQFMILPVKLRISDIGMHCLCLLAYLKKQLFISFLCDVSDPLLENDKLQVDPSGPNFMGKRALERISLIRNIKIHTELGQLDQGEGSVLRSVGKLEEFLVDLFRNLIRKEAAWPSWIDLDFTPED
In words: NBD dequenching lipid transfer between liposomes. The format is biochemical. To be noted: 12.5 µM donor and 50 µM acceptor liposomes; pH 7.5; labelled compound.

The target of experiment [2] is T2, N-terminally His6-tagged K. lactis Mmm1s (179–434) V190S (Kluyveromyces lactis, UniProt Q6CJU9 179-434, V190S).
T2 sequence (looked up): T1 sequence (Q6CJU9 179-434) with V12S
In words: co-purification of a coexpressed complex.

Experiment [3] deals with T3, N-terminally His6-tagged K. lactis Mmm1s (179–434) L274S (Kluyveromyces lactis, UniProt Q6CJU9 179-434, L274S).
T3 sequence (looked up): T1 sequence (Q6CJU9 179-434) with L96S
In words: co-purification of a coexpressed complex.

In experiment [4] the target is T4, N-terminally His6-tagged K. lactis Mmm1s (179–434) I369S (Kluyveromyces lactis, UniProt Q6CJU9 179-434, I369S).
T4 sequence (looked up): T1 sequence (Q6CJU9 179-434) with I191S
The experiment is described as follows: co-purification of a coexpressed complex.

Changes are numbered by the printed parent chain.

For `CCCCCCCC/C=C\CCCCCCCC(=O)OC[C@H](COP(=O)(O)OC[C@H](Nc1ccc([N+](=O)[O-])c2nonc12)C(=O)O)OC(=O)CCCCCCC/C=C\CCCCCCCC` [NBD-PS, 1,2-dioleoyl-sn-glycero-3-phospho-L-serine-N-(7-nitro-2-1,3-benzoxadiazol-4-yl)], in experiment [1], the “NBD-PS transferred after 10 s” value was “Efficiency of NBD-PS transfer between liposomes by HMmm1s–Mdm12 was threefold higher”.

B1: KlMdm12 (residues 1–239 of K. lactis Mdm12), nontagged (domain or fragment, Kluyveromyces lactis, UniProt Q6CUC3 1-239, looked up)
chain: T1 sequence (Q6CUC3 1-239)
In the case of B1, the binding result in experiment [2], in experiment [3] and in experiment [4] was “binds” each time.

These data come from publication PMC5839780 (The Journal of Cell Biology, 2018).
